Data: US20130336951A1 (CENTRE FOR ADDICTION AND MENTAL HEALTH, published 2013)

B1: Glyceraldehyde 3-phosphate-dehydrogenase (GAPDH), endogenous protein of rat hippocampus (enzyme)
chain: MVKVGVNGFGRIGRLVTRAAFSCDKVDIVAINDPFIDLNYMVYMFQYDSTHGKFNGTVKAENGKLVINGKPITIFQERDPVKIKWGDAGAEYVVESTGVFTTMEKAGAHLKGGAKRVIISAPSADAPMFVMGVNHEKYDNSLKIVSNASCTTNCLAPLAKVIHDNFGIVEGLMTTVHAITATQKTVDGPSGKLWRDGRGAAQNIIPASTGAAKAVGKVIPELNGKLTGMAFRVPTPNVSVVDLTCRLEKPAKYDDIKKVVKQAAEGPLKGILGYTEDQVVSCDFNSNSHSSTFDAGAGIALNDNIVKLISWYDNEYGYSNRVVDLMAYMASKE
notes: Native protein in rat hippocampal extracts, primary rat hippocampal neurons and rat brain
B2: GST-GluR2 NTa2 (A72-T121) (other, UniProt P19491 72-121, looked up)
chain: AVTNAFCSQFSRGVYAIFGFYDKKSVNTITSFCGTLHVSFITPSFPTDGT
notes: range 72-121; also called GluR2NT1-2; not shown: glutathione S-transferase (GST) encoded by vector pGEX-4T3
B3: p53, endogenous protein of rat hippocampus (other, UniProt P10361 1-391, looked up)
chain: MEDSQSDMSIELPLSQETFSCLWKLLPPDDILPTTATGSPNSMEDLFLPQDVAELLEGPEEALQVSAPAAQEPGTEAPAPVAPASATPWPLSSSVPSQKTYQGNYGFHLGFLQSGTAKSVMCTYSISLNKLFCQLAKTCPVQLWVTSTPPPGTRVRAMAIYKKSQHMTEVVRRCPHHERCSDGDGLAPPQHLIRVEGNPYAEYLDDRQTFRHSVVVPYEPPEVGSDYTTIHYKYMCNSSCMGGMNRRPILTIITLEDSSGNLLGRDSFEVRVCACPGRDRRTEEENFRKKEEHCPELPPGSAKRALPTSTSSSPQQKKKPLDGEYFTLKIRGRERFEMFRELNEALELKDARAAEESGDSRAHSSYPKTKKGQSTSRHKKPMIKKVGPDSD
B4: GST-GluR2 NTc (L422-E545) (other, UniProt P19491 422-545, looked up)
chain: LESPYVMMKKNHEMLEGNERYEGYCVDLAAEIAKHCGFKYKLTIVGDGKYGARDADTKIWNGMVGELVYGKADIAIAPLTITLVREEVIDFSKPFMSLGISIMIKKPQKSKPGVFSFLDPLAYE
notes: range 422-545; also called GST-GluR2NT3; GluR2NT3; not shown: glutathione S-transferase (GST) encoded by vector pGEX-4T3
B5: GST-GluR2 NTa1 (V22-F71) (other, UniProt P19491 22-71, looked up)
chain: VSSNSIQIGGLFPRGADQEYSAFRVGMVQFSTSEFRLTPHIDNLEVANSF
notes: range 22-71; also called GluR2NT1-1; not shown: glutathione S-transferase (GST) encoded by vector pGEX-4T3
B6: GST-GluR2 NTa5 (Q222-S271) (other, UniProt P19491 222-271, looked up)
chain: QVITIGKHVKGYHYIIANLGFTDGDLLKIQFGGANVSGFQIVDYDDSLVS
notes: range 222-271; also called GluR2NT1-5; not shown: glutathione S-transferase (GST) encoded by vector pGEX-4T3
B7: GST-GluR2 NTb (K272-I421) (other, UniProt P19491 272-421, looked up)
chain: KFIERWSTLEEKEYPGAHTATIKYTSALTYDAVQVMTEAFRNLRKQRIEISRRGNAGDCLANPAVPWGQGVEIERALKQVQVEGLSGNIKFDQNGKRINYTINIMELKTNGPRKIGYWSEVDKMVVTLTELPSGNDTSGLENKTVVVTTI
notes: range 272-421; also called GST-GluR2NT2; GluR2NT2; not shown: glutathione S-transferase (GST) encoded by vector pGEX-4T3
B8: GST-GluR2 NTa4 (K172-D221) (other, UniProt P19491 172-221, looked up)
chain: KWQVTAINVGNINNDKKDETYRSLFQDLELKKERRVILDCERDKVNDIVD
notes: range 172-221; also called GluR2NT1-4; not shown: glutathione S-transferase (GST) encoded by vector pGEX-4T3

Assays:
GST alone = molecular target: T1, GST alone (UniProt P08515 1-218 = GST); experiment: GST pull-down, Western blot for GAPDH
T1 construct: Negative control; also called GST peptide

[1] = molecular target: B4; experiment: repeated GST pull-down from rat hippocampal tissue
[2] = molecular target: B7; experiment: repeated GST pull-down from rat hippocampal tissue
GST-GluR1NT (A19-E538) = molecular target: T2, GST-GluR1NT (A19-E538) (UniProt P19490 19-538); experiment: GST pull-down from rat hippocampal extracts, Coomassie-stained SDS-PAGE
T2 construct: range 19-538; Control fusion protein; not shown: glutathione S-transferase (GST) encoded by vector pGEX-4T3

[3] = molecular target: B1; experiment: GST pull-down, Western blot for GAPDH
[4] = molecular target: T3, [35S]-GAPDH probe (in vitro translated, [35S]-methionine labelled GAPDH) (Homo sapiens, UniProt P04406 1-335, limits assumed, [35S]-methionine labelled); experiment: blot overlay with in vitro translated probe
GST-GluR2NT (V22-E545) = molecular target: T4, GST-GluR2NT (V22-E545) (Rattus norvegicus (Rat), UniProt P19491 22-545); experiment: GST pull-down, Western blot for p53 (FIG. 24A)
T4 construct: Bacterial GST fusion on glutathione-Sepharose; not shown: glutathione S-transferase (GST) encoded by vector pGEX-4T3

[5] = molecular target: T3, [35S]-GAPDH probe (in vitro translated, …); experiment: repeated in vitro binding assay with in vitro translated probe
[6] = molecular target: B1; experiment: repeated GST pull-down from rat hippocampal tissue

T3 sequence (P04406 whole entry): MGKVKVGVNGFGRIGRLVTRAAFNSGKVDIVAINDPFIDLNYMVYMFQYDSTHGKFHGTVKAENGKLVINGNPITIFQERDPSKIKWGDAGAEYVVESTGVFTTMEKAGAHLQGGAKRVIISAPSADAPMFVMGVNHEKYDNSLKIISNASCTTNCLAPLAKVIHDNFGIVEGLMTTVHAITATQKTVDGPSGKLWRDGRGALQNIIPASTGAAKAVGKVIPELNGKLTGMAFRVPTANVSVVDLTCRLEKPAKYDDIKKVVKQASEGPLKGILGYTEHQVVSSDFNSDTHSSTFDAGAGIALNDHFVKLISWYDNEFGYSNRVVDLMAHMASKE
T1 sequence (P08515 whole entry): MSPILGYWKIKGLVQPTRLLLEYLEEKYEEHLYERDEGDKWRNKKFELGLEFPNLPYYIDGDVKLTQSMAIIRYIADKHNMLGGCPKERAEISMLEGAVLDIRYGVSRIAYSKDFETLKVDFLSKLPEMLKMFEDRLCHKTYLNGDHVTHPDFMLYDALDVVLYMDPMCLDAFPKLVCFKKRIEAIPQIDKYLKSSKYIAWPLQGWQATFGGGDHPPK

Binder: B1
binding result (GST alone): no binding
binding result [1]: no binding
binding result [2]: no binding
binding result (GST-GluR1NT (A19-E538)): no binding

Binder: B2
binding result [3]: no binding
binding result [4]: no binding

Binder: B3
binding result (GST-GluR2NT (V22-E545)): no binding

Binder: B4
binding result [5]: no binding

Binder: B5
binding result [6]: no binding
binding result [4]: no binding

Binder: B6
binding result [3]: no binding
binding result [4]: no binding

Binder: B7
binding result [5]: no binding

Binder: B8
binding result [3]: no binding
binding result [4]: no binding
